Assay results from US20090280480A1.

Columns and labels:
[1] = target: biotinylated NM^K184C seed (fibers) (Saccharomyces cerevisiae) (UniProt P05453); experiment: capture of biotinylated seed (50% w/w) on Streptavidin-coated Dynabeads, SDS wash, scintillation counting
[2] = target: Rnq1 preformed fibers (sonicated seed) (Saccharomyces cerevisiae) (UniProt P25367); experiment: cell-based or functional assay
[3] = target: NM, the N-terminal and middle region of Saccharomyces cerevisiae Sup35 (soluble, unpolymerized) (Saccharomyces cerevisiae) (UniProt P05453); experiment: cell-based or functional assay

Chain of biotinylated NM^K184C seed (fibers) (Saccharomyces cerevisiae) (P05453 1-253 K184C): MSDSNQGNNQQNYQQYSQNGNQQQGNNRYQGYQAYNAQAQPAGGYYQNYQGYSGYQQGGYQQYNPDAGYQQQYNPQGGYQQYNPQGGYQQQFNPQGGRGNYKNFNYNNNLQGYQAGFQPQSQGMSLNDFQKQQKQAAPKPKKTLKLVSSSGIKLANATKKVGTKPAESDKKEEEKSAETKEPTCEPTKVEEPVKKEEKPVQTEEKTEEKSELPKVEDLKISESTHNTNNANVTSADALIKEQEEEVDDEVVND

With “soluble NM^T158C-iodo[1-14C]acetamide (from UniProt P05453 1-253)” as the substance, how does the fraction of seed-bound NM soluble in SDS at early time points [1] read?
The fraction of seed-bound NM soluble in SDS at early time points was 50%.

Which lag time of Thioflavin T fluorescence with 2% preformed fibers [2] does the source give for “Rnq1 (purified recombinant, soluble) (from UniProt P25367 1-405)” here?
Its lag time of Thioflavin T fluorescence with 2% preformed fibers is 4.3 h.

With “Hsp104 (yeast protein-remodeling factor, AAA+ family), His-tag removed (from UniProt P31539 1-908) (enzyme)” as the substance, how does the inhibition of NM fibrillization, no nucleotide [3] read?
Its inhibition of NM fibrillization, no nucleotide is 7.6 µM.

And the inhibition of NM fibrillization, with ADP [3]?
Its inhibition of NM fibrillization, with ADP is 3.1 µM.

And the inhibition of NM fibrillization, with AMP-PNP [3]?
The inhibition of NM fibrillization, with AMP-PNP was 0.2 µM.

And the inhibition of NM fibrillization, with ATP hydrolysis [3]?
Its inhibition of NM fibrillization, with ATP hydrolysis is 0.1 µM.
